Patent publication US20230374116A1 (ROSALIND FRANKLIN INSTITUTE, published 2023)

Molecular target: SARS-CoV-2 receptor-binding domain (amino acids 330-532), prototypical Wuhan/Victoria (SARS-CoV-2 (Wuhan/Victoria), UniProt P0DTC2 330-532)
Assay: X-ray crystallography

B1: A8 (VHH)
VHH: QVQLVESGGGLVQAGGSLRLSCAASGGTFSTAAMGWFRQAPGEERECVASIGWRGVRTWYADSVKGRFTISRDNPQNTVYLQMNNLKSGDTAVYYCAASVGNYGLPWAHFEYDFWGQGIQVTVSS
notes: also called 2_A8
binding result: binds
